# Molecular target: the molecule itself
# Experiment: SEC-MALS
protein,measurement,value
"CpMgm101-NoTag (untagged full-length mature Candida parapsilosis Mgm101) (natural protein, UniProt G8B839 30-266, looked up) VPKTASAKTTSKLAPSITTEDEVAEQDPSLQEPQSATSTASFAFHDAPPETRSVLNSSTNNNIDWSDSYHGLGSQPFSREIADILLAPIKDQDIEIKPDGLLYLPEIKYRRILNKAFGPGGWGLVPRTESLITKSQISREYGLICHGRLISIARGEQDYFGGEEKVTTALEGCKSNALMRCCKDLGIASELWDPGFIRKWKAKYCEEVFVEHVVNKKKKKLWKLKSNKKIEYPYKQL",stoichiometry N,3
